Measured values reported in paper doi:10.1101/2022.08.26.505460.

Biological target: FN3^WDR5-cpYFP fusion protein

Kd: 727 nM
Substance: WD40-repeat protein 5 (WDR5) (from UniProt P61964 31-334) (natural protein)
